Values of other authors, collected in paper PMC5358871.

Target: Bfd (Pseudomonas aeruginosa) (UniProt Q9HY80)
Assay: SPR, ITC

Chain of UniProt Q9HY80 (Q9HY80 whole entry): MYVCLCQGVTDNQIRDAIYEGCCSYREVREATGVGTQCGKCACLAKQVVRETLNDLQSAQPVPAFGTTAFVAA

## BfrB (from UniProt Q9HY79)
  Kd: 3000 nM
